The source of these data is PMC5938748 (Molecular microbiology, 2012).

One data set has as its target T1, MutS (Bacillus subtilis, UniProt P49849 1-858).
T1 sequence: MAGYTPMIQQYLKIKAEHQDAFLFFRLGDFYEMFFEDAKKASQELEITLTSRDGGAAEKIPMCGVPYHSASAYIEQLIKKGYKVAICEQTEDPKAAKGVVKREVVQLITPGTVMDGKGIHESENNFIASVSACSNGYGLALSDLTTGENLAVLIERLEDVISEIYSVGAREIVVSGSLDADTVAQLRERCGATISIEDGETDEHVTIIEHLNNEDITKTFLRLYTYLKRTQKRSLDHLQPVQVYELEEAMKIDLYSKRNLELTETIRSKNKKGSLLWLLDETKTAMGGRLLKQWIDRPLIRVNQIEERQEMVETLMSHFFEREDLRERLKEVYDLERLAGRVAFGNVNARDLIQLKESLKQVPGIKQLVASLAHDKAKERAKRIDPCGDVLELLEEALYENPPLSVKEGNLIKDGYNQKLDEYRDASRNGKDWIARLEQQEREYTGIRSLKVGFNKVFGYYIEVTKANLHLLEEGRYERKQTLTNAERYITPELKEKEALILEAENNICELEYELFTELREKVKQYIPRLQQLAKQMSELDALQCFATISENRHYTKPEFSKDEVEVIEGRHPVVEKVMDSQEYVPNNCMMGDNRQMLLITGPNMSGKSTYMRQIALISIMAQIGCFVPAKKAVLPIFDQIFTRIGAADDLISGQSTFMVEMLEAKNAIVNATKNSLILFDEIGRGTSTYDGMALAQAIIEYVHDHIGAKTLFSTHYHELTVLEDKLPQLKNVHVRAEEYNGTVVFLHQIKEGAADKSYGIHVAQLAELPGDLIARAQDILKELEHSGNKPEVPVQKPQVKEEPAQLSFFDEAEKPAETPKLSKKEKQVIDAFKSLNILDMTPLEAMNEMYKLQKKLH
Description: 2-aminopurine fluorescence titration.

The next data set addresses T2, Bacillus subtilis MutS (B. subtilis, UniProt P49849 1-858).
T2 sequence (looked up): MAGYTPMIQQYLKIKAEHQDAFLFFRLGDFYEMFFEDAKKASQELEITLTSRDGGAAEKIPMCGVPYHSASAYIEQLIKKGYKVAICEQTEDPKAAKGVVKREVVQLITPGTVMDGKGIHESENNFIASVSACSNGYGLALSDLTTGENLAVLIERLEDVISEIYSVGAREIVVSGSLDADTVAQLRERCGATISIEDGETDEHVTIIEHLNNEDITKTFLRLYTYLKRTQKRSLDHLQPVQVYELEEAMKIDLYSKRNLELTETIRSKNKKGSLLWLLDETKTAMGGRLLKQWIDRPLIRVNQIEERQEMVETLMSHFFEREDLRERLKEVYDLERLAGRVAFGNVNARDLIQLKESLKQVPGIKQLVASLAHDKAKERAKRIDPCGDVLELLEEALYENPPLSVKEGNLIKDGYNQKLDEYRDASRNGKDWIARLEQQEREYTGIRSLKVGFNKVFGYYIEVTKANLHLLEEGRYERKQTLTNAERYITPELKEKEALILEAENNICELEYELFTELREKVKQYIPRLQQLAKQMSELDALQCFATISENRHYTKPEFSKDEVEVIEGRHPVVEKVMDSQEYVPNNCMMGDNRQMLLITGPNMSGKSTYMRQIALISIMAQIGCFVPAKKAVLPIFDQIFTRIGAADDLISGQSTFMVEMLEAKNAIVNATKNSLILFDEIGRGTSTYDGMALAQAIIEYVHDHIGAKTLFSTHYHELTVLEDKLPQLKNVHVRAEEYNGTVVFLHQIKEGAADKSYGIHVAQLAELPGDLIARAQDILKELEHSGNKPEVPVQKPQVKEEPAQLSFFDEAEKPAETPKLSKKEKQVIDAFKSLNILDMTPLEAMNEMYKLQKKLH
Briefly: far-Western, overlay or dot blot.

The target in data set [1] is T3, Bacillus subtilis MutSF30A (B. subtilis, UniProt P49849 1-858, F30A).
T3 sequence (looked up): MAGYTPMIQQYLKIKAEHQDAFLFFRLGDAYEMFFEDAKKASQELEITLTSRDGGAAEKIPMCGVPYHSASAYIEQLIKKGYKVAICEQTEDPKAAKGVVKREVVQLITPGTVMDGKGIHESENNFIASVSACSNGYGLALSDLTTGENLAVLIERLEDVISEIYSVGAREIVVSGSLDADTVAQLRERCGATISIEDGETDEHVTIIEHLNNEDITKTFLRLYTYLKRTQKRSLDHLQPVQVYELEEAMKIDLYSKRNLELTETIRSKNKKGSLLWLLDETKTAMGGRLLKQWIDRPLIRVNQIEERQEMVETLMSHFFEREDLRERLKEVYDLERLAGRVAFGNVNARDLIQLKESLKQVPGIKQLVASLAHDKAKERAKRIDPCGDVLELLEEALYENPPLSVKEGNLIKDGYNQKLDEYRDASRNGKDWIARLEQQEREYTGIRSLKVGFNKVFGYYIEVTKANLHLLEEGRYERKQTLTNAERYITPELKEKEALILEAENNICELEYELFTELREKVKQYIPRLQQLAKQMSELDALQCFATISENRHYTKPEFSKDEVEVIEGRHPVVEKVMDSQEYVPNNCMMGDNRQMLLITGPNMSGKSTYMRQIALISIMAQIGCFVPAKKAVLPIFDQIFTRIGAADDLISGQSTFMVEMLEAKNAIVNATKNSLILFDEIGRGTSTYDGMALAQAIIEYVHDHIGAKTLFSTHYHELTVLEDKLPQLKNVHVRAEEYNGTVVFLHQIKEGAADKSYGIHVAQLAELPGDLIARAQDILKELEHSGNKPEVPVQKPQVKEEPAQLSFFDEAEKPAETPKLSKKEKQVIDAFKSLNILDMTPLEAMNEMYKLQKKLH
Description: far-Western, overlay or dot blot.

B1: 2-AP(+T) T-bulge duplex (dsDNA)
DNA 1: TAAAGGAAGTCGTCTATATATGGTATGACTAAGTGTA
DNA 2: TACACTTAGTCATACCATTATAGACGACTTCCTTTA
modifications: 2-aminopurine at position 18 of strand 1 (written as A)
Take B1: binding with MutS was characterised by a dissociation constant (Kd) of 0.024 µM.

B2: Bacillus subtilis processivity clamp DnaN (natural protein, B. subtilis, UniProt P05649 1-378, looked up)
chain: MKFTIQKDRLVESVQDVLKAVSSRTTIPILTGIKIVASDDGVSFTGSDSDISIESFIPKEEGDKEIVTIEQPGSIVLQARFFSEIVKKLPMATVEIEVQNQYLTIIRSGKAEFNLNGLDADEYPHLPQIEEHHAIQIPTDLLKNLIRQTVFAVSTSETRPILTGVNWKVEQSELLCTATDSHRLALRKAKLDIPEDRSYNVVIPGKSLTELSKILDDNQELVDIVITETQVLFKAKNVLFFSRLLDGNYPDTTSLIPQDSKTEIIVNTKEFLQAIDRASLLAREGRNNVVKLSAKPAESIEISSNSPEIGKVVEAIVADQIEGEELNISFSPKYMLDALKVLEGAEIRVSFTGAMRPFLIRTPNDETIVQLILPVRTY
For B2, the binding result (with Bacillus subtilis MutS; in data set [1]) was “binds” each time.
